Measurements reported in publication PMC10786891, “Massively parallel profiling of RNA-targeting CRISPR-Cas13d”.
Numbering of substitutions follows the chain as printed. Numbers in names are those of the source.

B1: target 1 U3G,G12C (mixed)
RNA 1: CACCCGUGCAAAAAUGCAGGGGUCUAAAACUGAGCGGAUAACCUCUCUAUGG
RNA 2: GGGAAUGGAUCCACAUCUACGAAUUCGUACCAUAGAGAGCUUAUCCGCGCACCGAGAUCGGAAGAGCACACGU
B2: target 1 C7G,A18C (mixed)
RNA 1: B1 RNA 1
RNA 2: B1 RNA 2 with A34C, C40G, C45G, G49U
B3: target 1 insU 3' of 20,insA 3' of 10 (mixed)
RNA 1: B1 RNA 1
RNA 2: GGGAAUGGAUCCACAUCUACGAAUUCGUACCAUUAGAGAGGUUAAUCCGCUCACCGAGAUCGGAAGAGCACACGU
B4: target 1 G5C,U11C (mixed)
RNA 1: B1 RNA 1
RNA 2: B1 RNA 2 with C40G, U41C, G47C, G49U
B5: target 1 insA 3' of 13,insG 3' of 11 (mixed)
RNA 1: B1 RNA 1
RNA 2: B3 RNA 2 with U34A, A35G, G36A, A37G, G38A, A39G, G40A, U43G, A44U
B6: target 1 insA 3' of 2,insU 3' of 1 (mixed)
RNA 1: B1 RNA 1
RNA 2: GGGAAUGGAUCCACAUCUACGAAUUCGUACCAUAGAGAGGUUAUCCGCUCAAUCCGAGAUCGGAAGAGCACACGU
B7: target 1 C4A,C21U (mixed)
RNA 1: B1 RNA 1
RNA 2: B1 RNA 2 with C31U, C40G, C48A, G49U
B8: target 1 complement block 5-11 (mixed)
RNA 1: B1 RNA 1
RNA 2: B1 RNA 2 with C40G, U41A, U42A, A43U, U44A, C45G, C46G, G47C, G49U
B9: target 1 G12A,U19A (mixed)
RNA 1: B1 RNA 1
RNA 2: B1 RNA 2 with U33A, C40A, G49U
B10: target 1 A9G,G13A (mixed)
RNA 1: B1 RNA 1
RNA 2: B1 RNA 2 with G39A, C40G, A43G, G49U
B11: target 1 C7A,U19G (mixed)
RNA 1: B1 RNA 1
RNA 2: B1 RNA 2 with U33G, C40G, C45A, G49U
B12: target 1 insC 3' of 14,insU 3' of 12 (mixed)
RNA 1: B1 RNA 1
RNA 2: B3 RNA 2 with U34A, A35G, G36A, A37G, G38A, A39C, A44U
B13: target 1 insC 3' of 3,insC 3' of 3 (mixed)
RNA 1: B1 RNA 1
RNA 2: B6 RNA 2 with A51C, A52C, U53A
B14: target 1 C6G,G15U (mixed)
RNA 1: B1 RNA 1
RNA 2: B1 RNA 2 with G37U, C40G, C46G, G49U
B15: target 1 insU 3' of 9,insU 3' of 9 (mixed)
RNA 1: B1 RNA 1
RNA 2: B6 RNA 2 with C45U, C46U, G47C, U49G, A51U, A52C, U53A
B16: target 1 C4A,A9G (mixed)
RNA 1: B1 RNA 1
RNA 2: B1 RNA 2 with C40G, A43G, C48A, G49U
B17: target 1 insG 3' of 8,insU 3' of 6 (mixed)
RNA 1: B1 RNA 1
RNA 2: B6 RNA 2 with C45G, G47C, C48U, U49G, A51U, A52C, U53A
B18: target 1 G5U,U10G (mixed)
RNA 1: B1 RNA 1
RNA 2: B1 RNA 2 with C40G, U42G, G47U, G49U
B19: target 1 A1G,G12A (mixed)
RNA 1: B1 RNA 1
RNA 2: B1 RNA 2 with C40A, G49U, A51G
B20: target 1 G12A (mixed)
RNA 1: B1 RNA 1
RNA 2: B1 RNA 2 with C40A, G49U
B21: target 1 insG 3' of 10,insA 3' of 6 (mixed)
RNA 1: B1 RNA 1
RNA 2: B6 RNA 2 with A43G, U44A, C45U, G47C, C48A, U49G, A51U, A52C, U53A
B22: target 1 insG 3' of 18,insA 3' of 7 (mixed)
RNA 1: B1 RNA 1
RNA 2: B3 RNA 2 with U34A, A35G, A45U, U46C, C47A
B23: target 1 C6U,U10G (mixed)
RNA 1: B1 RNA 1
RNA 2: B1 RNA 2 with C40G, U42G, C46U, G49U
B24: target 1 insG 3' of 16,insG 3' of 7 (mixed)
RNA 1: B1 RNA 1
RNA 2: B3 RNA 2 with U34A, A35G, G36A, A37G, A45U, U46C, C47G
B25: target 1 A1U,G12A (mixed)
RNA 1: B1 RNA 1
RNA 2: B1 RNA 2 with C40A, G49U, A51U
B26: target 1 insU 3' of 15,insC 3' of 15 (mixed)
RNA 1: B1 RNA 1
RNA 2: B3 RNA 2 with U34A, A35G, G36A, A37G, G38U, A39C, G40A, U42G, A44U
B27: target 1 insC 3' of 17,insA 3' of 8 (mixed)
RNA 1: B1 RNA 1
RNA 2: B3 RNA 2 with U34A, A35G, G36C, A45U, U46A
B28: target 1 C4U,U11G (mixed)
RNA 1: B1 RNA 1
RNA 2: B1 RNA 2 with C40G, U41G, C48U, G49U
B29: target 1 insA 3' of 15 (mixed)
RNA 1: B1 RNA 1
RNA 2: GGGAAUGGAUCCACAUCUACGAAUUCGUACCAUAGAGAAGGUUAUCCGCUCACCGAGAUCGGAAGAGCACACGU

The binders below were run against T1, EsCas13d, nuclease-dead (Eubacterium siraeum, UniProt B0MS50, R295A;H300A;R849A;H854A) (assay: crRNA (strand 1, pre-loaded); Mg2+; 40 mM Tris-HCl pH 7.5, 150 mM NaCl, 6 mM MgCl2, 1 mM DTT, 0.1% Tween-20, 0.2 mg/ml BSA; 25 C; 10 min per concentration, then washed). Conditions: tags: His6-TwinStrep-SUMO cleaved; N-terminal SNAP kept (SNAP-Surface 488); label: 3' end held by stalled T7 RNA polymerase.
T1 sequence: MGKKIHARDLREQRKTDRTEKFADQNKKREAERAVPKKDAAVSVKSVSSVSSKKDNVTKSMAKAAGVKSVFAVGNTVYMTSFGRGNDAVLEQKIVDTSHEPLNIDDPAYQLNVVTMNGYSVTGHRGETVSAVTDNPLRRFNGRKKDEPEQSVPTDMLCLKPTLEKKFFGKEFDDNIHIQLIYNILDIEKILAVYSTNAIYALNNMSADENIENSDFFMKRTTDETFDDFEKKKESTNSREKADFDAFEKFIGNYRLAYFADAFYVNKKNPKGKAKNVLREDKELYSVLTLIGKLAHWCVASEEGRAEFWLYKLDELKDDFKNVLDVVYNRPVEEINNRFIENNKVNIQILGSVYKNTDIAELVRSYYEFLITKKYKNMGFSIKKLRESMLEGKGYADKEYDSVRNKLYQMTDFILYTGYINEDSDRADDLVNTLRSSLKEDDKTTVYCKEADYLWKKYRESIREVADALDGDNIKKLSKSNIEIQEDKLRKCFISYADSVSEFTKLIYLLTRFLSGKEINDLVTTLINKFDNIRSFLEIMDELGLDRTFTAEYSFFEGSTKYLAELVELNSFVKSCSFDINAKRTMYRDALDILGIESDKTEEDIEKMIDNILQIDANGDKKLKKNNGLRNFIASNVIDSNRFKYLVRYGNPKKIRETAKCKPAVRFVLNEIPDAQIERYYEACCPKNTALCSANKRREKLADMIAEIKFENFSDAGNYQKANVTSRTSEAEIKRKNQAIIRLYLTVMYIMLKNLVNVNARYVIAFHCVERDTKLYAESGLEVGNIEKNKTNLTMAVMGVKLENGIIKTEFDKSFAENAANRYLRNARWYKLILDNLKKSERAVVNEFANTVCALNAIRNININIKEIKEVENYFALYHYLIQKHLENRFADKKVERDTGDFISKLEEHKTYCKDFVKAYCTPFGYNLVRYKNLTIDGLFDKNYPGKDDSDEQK

| Binder | Kd |
| --- | --- |
| B1 | 8.1 ± 0.9 nM |
| B2 | 81 ± 11 nM |
| B3 | 19.4 ± 1.1 nM |
| B4 | 16.8 ± 1.1 nM |
| B5 | 13.2 ± 0.8 nM |
| B6 | 10.5 ± 0.6 nM |
| B7 | 4.4 ± 0.7 nM |
| B8 | 19.2 ± 0.6 nM |
| B9 | 51 ± 11 nM |
| B10 | 8.4 ± 0.4 nM |
| B11 | 55 ± 6 nM |
| B12 | 43 ± 9 nM |
| B13 | 43 ± 15 nM |
| B14 | 36 ± 5 nM |
| B15 | 18.8 ± 1 nM |
| B16 | 3.18 ± 0.24 nM |
| B17 | 16.5 ± 0.6 nM |
| B18 | 57 ± 5 nM |
| B19 | 5.9 ± 0.5 nM |
| B20 | 5.5 ± 0.4 nM |
| B21 | 41 ± 6 nM |
| B22 | 43 ± 4 nM |
| B23 | 15.7 ± 1.1 nM |
| B24 | 16.5 ± 1.7 nM |
| B25 | 5.2 ± 0.5 nM |
| B26 | 28.4 ± 3.2 nM |
| B27 | 52 ± 7 nM |
| B28 | 21 ± 4 nM |
| B29 | 5.9 ± 0.6 nM |
